Results: patent publication US20130331325A1 (NEW YORK UNIVERSITY, published 2013)

How the values were obtained:
[1] = target: T1, ligand-binding domain of human FGFR1c (D142 to R365) (human, UniProt P11362 142-365); test: SPR: FGF23^C-tail immobilized on chip, increasing concentrations of FGFR1c ligand-binding domain passed over (FIG. 10F)
T1 construct: range 142-365
T1 sequence (looked up): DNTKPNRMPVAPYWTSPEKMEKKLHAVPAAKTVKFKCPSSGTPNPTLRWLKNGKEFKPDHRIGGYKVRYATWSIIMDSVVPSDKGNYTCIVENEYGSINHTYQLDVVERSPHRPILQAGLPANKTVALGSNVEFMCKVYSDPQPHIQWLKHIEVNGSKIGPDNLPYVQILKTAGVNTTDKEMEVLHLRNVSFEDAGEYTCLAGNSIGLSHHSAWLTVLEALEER
Text: (§1) FIGS. 10A-10D show overlays of SPR sensorgrams illustrating binding of FGFR1c to FGF2 (FIG. 10A), FGF19 (FIG. 10B), FGF21 (FIG. 10C), and FGF23 (FIG. 10D), and fitted saturation binding curves. Increasing concentrations of FGFR1c ligand-binding domain were passed over a biosensor chip containing immobilized FGF2, FGF19, FGF21, or FGF23. […] Increasing concentrations of αKlotho-FGFR1c complex were passed over a biosensor chip containing immobilized FGF23. […] FGF23^C-tail was immobilized on a biosensor chip and increasing concentrations of FGFR1c ligand-binding domain were passed over the chip. Dissociation constants (KDs) given in FIGS. 10A-10E were derived from the saturation binding curves.

[2] = target: T2, binary complex of FGFR1c ligand-binding domain with αKlotho ectodomain (human, UniProt P11362 142-365); test: SPR
T2 chain 1: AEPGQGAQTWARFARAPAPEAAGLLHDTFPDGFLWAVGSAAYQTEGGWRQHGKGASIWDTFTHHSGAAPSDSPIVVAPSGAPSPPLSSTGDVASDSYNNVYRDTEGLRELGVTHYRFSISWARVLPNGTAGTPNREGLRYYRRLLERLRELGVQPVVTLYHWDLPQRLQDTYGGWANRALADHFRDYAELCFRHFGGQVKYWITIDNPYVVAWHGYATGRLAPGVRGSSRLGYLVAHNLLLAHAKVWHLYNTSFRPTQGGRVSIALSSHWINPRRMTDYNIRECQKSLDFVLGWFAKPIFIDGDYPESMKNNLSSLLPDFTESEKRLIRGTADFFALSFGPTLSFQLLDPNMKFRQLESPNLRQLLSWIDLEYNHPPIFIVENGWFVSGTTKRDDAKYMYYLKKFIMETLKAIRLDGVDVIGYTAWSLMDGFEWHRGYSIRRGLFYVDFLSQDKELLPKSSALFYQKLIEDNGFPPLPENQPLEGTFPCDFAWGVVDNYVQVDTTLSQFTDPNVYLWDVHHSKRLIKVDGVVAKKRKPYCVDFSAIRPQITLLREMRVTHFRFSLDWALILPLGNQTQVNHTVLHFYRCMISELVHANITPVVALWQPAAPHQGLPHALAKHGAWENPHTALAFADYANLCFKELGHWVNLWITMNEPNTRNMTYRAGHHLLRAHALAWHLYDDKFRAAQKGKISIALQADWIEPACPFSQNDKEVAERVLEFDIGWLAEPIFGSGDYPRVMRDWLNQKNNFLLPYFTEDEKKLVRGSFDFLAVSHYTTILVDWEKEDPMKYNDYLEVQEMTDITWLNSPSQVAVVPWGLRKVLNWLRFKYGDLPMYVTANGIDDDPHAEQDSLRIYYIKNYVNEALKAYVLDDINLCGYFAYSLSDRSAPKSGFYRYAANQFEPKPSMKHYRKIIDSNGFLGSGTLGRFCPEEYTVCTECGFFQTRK
T2 chain 2: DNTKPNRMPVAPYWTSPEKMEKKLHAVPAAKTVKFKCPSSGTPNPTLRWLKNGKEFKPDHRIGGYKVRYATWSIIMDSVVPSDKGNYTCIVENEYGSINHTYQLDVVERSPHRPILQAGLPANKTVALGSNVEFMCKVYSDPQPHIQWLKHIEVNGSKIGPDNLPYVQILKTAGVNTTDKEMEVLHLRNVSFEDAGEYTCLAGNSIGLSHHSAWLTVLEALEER

[3] = target: T3, ligand-binding domain of human FGFR1c (D142 to R365) (human, UniProt P11362 142-365); test: SPR
T3 chain: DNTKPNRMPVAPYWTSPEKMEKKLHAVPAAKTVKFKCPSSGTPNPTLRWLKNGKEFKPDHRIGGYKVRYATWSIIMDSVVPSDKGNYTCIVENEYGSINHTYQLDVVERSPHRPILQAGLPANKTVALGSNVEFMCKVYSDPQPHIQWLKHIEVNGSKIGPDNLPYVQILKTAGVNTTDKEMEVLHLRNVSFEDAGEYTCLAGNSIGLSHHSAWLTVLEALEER

[4] = target: T4, binary complex of FGFR1c ligand-binding domain with αKlotho ectodomain (murine; human, UniProt P11362 142-365); test: SPR: immobilized FGF23; αKlotho-FGFR1c complex (FIG. 10E) against FGFR1c ligand-binding domain alone (FIG. 10D)
T4 construct: range 142-365; also called αKlotho-FGFR1c complex; binary αKlotho-FGFR1c complex; not shown: C-terminal FLAG tag
T4 sequence 1: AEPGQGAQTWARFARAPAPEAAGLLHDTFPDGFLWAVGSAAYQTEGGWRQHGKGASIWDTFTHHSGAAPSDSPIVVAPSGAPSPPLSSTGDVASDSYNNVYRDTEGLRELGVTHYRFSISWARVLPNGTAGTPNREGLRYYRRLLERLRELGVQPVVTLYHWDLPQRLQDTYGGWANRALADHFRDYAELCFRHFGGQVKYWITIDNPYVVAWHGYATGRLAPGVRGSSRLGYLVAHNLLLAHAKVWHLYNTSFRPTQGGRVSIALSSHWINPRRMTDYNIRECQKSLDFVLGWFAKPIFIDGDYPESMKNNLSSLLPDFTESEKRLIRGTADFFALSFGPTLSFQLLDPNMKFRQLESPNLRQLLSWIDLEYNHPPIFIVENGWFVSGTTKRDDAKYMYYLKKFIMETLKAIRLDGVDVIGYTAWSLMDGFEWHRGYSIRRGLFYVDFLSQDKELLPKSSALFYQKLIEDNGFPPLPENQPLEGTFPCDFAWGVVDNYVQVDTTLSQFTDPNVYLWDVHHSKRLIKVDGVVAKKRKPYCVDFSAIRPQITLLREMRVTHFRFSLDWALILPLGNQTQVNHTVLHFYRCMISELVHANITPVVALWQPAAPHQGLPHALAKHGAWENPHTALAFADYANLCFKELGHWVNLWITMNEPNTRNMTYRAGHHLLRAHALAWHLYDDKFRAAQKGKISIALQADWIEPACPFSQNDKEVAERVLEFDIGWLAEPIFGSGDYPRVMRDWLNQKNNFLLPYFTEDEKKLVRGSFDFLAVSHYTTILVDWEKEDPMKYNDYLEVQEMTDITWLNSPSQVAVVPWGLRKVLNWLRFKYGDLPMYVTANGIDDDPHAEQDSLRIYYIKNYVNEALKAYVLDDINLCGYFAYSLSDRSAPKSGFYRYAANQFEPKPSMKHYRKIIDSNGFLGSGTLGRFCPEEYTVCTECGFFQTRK
T4 sequence 2: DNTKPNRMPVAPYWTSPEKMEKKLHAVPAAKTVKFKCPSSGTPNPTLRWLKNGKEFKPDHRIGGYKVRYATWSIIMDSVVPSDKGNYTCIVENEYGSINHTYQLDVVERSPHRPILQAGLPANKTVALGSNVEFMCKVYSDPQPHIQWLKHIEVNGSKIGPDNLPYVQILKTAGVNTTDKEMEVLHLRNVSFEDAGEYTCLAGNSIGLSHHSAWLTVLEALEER
Text: as §1
In the target tissue, Klotho co-receptors constitutively associate with cognate receptors of endocrine FGFs to offset the inherently low receptor-binding affinity of endocrine FGFs (FIGS. 10B-10D; Kurosu et al., J. Biol. Chem. 282:26687-26695 (2007); Kurosu et al., J. Biol. Chem. 281:6120-6123 (2006); Ogawa et al., Proc. Nat'l. Acad. Sci. U.S.A. 104:7432-7437 (2007); Urakawa et al., Nature 444:770-774 (2006), which are hereby incorporated by reference in their entirety). […]

[5] = target: T4, binary complex of FGFR1c ligand-binding …; test: SPR competition: increasing chimera with a fixed concentration of αKlotho-FGFR1c complex over immobilized FGF23 (competitor)
Text: FIGS. 7A and 7B show overlays of SPR sensorgrams illustrating inhibition by FGF2^ΔHBScore-FGF23^C-tail (FIG. 7A) or FGF23 (FIG. 7B) of αKlotho-FGFR1c binding to FGF23 immobilized on a biosensor chip. Increasing concentrations of FGF2^ΔHBScore-FGF23^C-tail or FGF23 were mixed with a fixed concentration of αKlotho-FGFR1c complex, and the mixtures were passed over a FGF23 chip. […] FGF2 and αKlotho-FGFR1c complex were mixed at a molar ratio of 15:1, and the mixture was passed over a biosensor chip containing immobilized FGF23. FIGS. 7D and 7E show overlays of SPR sensorgrams illustrating no inhibition by FGF2^ΔHBScore-FGF23^C-tail (FIG. 7D) or FGF23 (FIG. 7E) of βKlotho-FGFR1c binding to FGF21. FGF2^ΔHBScore-FGF23^C-tail or FGF23 were mixed with βKlotho-FGFR1c complex at a molar ratio of 10:1, and the mixtures were passed over a biosensor chip containing immobilized FGF21. […] Wild-type mice and αKlotho knockout mice were given 0.21 mg and 0.51 mg of protein, respectively, per kg of body weight. Data are presented as mean±SEM; **, P<0.01; ***, P<0.001 by ANOVA. […]
To determine whether the FGF2^ΔHBScore-FGF23^C-tail and FGF2^ΔHBScore-FGF21^C-tail chimeras gained the ability to signal in a Klotho co-receptor-dependent, endocrine fashion, it was first analyzed whether these chimeras can form ternary complexes with FGFR1c and Klotho co-receptor. […]

[6] = target: T1, ligand-binding domain of human FGFR1c …; test: SPR: FGFR1c ligand-binding domain over immobilized FGF21 (FIG. 10C)
Text: as §1

B1: N-terminally hexahistidine-tagged C-terminal tail peptide of FGF23 (S180 to I251) (peptide)
peptide: SAEDDSERDPLNVLKPRARMTPAPASCSQELPSAEDNSPMASDPLGVVRGGRVNTHAGGTGPEGCRPFAKFI
notes: also called FGF23^C-tail; not shown: N-terminal hexahistidine tag
binding result [1]: no binding

B2: N-terminally hexahistidine-tagged, mature form of human FGF23 (Y25 to I251) with arginines 176 and 179 replaced with glutamine (ligand)
chain: YPNASPLLGSSWGGLIHLYTATARNSYHLQIHKNGHVDGAPHQTIYSALMIRSEDAGFVVITGVMSRRYLCMDFRGNIFGSHYFDPENCRFQHQTLENGYDVYHSPQYHFLVSLGRAKRAFLPGMNPPPYSQFLSRRNEIPLIHFNTPIPRQHTQSAEDDSERDPLNVLKPRARMTPAPASCSQELPSAEDNSPMASDPLGVVRGGRVNTHAGGTGPEGCRPFAKFI
notes: also called native FGF23; wild-type FGF23; not shown: N-terminal hexahistidine tag
Kd [2]: 27.4 nM
Kd [3]: 648 nM
fold enhancement of the affinity of FGF23 for FGFR1c by αKlotho (against FGFR1c alone) [4]: > 20 fold

B3: FGF2^ΔHBScore-FGF23^C-tail chimera (designed binder)
chain: MAAGSITTLPALPEDGGSGAFPPGHFKDPKRLYCKNGGFFLRIHPDGRVDGVREKSDPHIKLQLQAEERGVVSIKGVSANRYLAMKEDGRLLASKSVTDECFFFERLESNNYNTYRSRKYTSWYVALDQTGQYVLGSKTGPGQKAILFLPMRNEIPLIHFNTPIPRQHTQSAEDDSERDPLNVLKPRARMTPAPASCSQELPSAEDNSPMASDPLGVVRGGRVNTHAGGTGPEGCRPFAKFI
notes: Core domain of FGF2 (M1 to M151, K128D/R129Q/K134V, C78S/C96S) joined to the C-terminal region of FGF23 (R161 to I251, R176Q/R179Q)
binding result [5]: binds

B4: N-terminally hexahistidine-tagged, mature form of human FGF21 (H29 to S209) (ligand)
chain: HPIPDSSPLLQFGGQVRQRYLYTDDAQQTEAHLEIREDGTVGGAADQSPESLLQLKALKPGVIQILGVKTSRFLCQRPDGALYGSLHFDPEACSFRELLLEDGYNVYQSEAHGLPLHLPGNKSPHRDPAPRGPARFLPLPGLPPALPEPPGILAPQPPDVGSSDPLSMVGPSQGRSPSYAS
notes: also called native FGF21; not shown: N-terminal hexahistidine tag
binding result [6]: binds
Kd [3]: 2520 nM
